{"source": "paper PMC11359734", "about": "“Two enzymes contribute to citrate production in the mitochondrion of Toxoplasma gondii” (The Journal of Biological Chemistry, 2024)", "key": {"[1]": {"substrate": "O=C(O)CC(=O)C(=O)O", "assay": "citrate synthase kit, OD412, 96-well plate", "assay_type": "biochemical, Toxoplasma gondii", "settings": "co-substrate acetyl-CoA"}, "[2]": {"substrate": "CC(=O)SCCNC(=O)CCNC(=O)[C@H](O)C(C)(C)COP(=O)(O)OP(=O)(O)OC[C@H]1O[C@@H](n2cnc3c(N)ncnc32)[C@H](O)[C@@H]1OP(=O)(O)O", "assay": "citrate synthase kit, OD412, 96-well plate", "assay_type": "biochemical, Toxoplasma gondii", "settings": "co-substrate oxaloacetate"}}, "data": [{"protein": "TgPrpC (Toxoplasma gondii) (protein, residues 113-619 (N-terminal part removed), His-tagged fusion from pESUMO vector, expressed in E. coli Transetta (DE3), Ni2+ column) QSGVHVPTAPSDCAFSPDWRSVCCSQTFSAVSTTTLERQITKENSKNGIECLNAESENCFGFALLLRHRCGLHSGSVDPPLCSLTRRKPTWQRQTTAFLSSTMARQPLETSYEQRKDSEFSPGLEGVVAGESAISSVGPASLAGLTYRGYRIDDLTEKATFEEVVFLLLHDRLPTKQELDAQHQELVLARRLPPSLKACLEYFPKNSHPMDVVRTGCSMMGMLEQENAPPDQQAKIGLRLIGMYSSMLLYWYHYAHHGIRICEETDPADSVAAHFLKLLNQHSSGPHPLEVKAVDISLILYAEHDFNASTFAARVTAATRSDIYSAICSAIGTLKGPLHGGANEAAIMFLRKLRDMQQADQELESIWRHHERVMGFGHRLYKEGDPRSHIMMKVALDLAQNAPKKDPNLVQIAQHIEERMEKEKHLPANVDFPCALAYHQCGIPTDLYTPLFVLARTAGWTAHIMEQRANNRLIRPVSHYVGPPVRPFPSFEEREKLANPSEQSRSR", "values": [{"measurement": "Km", "setting": "[1]", "value": 1.661, "unit": "µM"}, {"measurement": "Km", "setting": "[2]", "value": 1.169, "unit": "µM"}]}, {"protein": "TgCS1 (Toxoplasma gondii) (protein, residues 95-559 (N-terminal part removed), His-tagged fusion from pESUMO vector, expressed in E. coli Transetta (DE3), Ni2+ column) SARSVCGGLSNAEARAAVEAALDALAEKVQEAAEPKRELLKTLRKEHGTVVISEATLSTVCGGMRGLTAILTETSTLHAEKGILYRGLTINECLAKLPRMHKEEYPAVEGLIWFLMTGSIPTVNEVELLSNALYALSLSSASSSPSAPFIPPHVGKVLDAVPPSTHPMTQLVMAAAALQPTSELAQAYRHKTVSRHDLWKPALADALSLIAKNAVMAARIFRRSFRDGQEIDPAANFGHMMGFNSKEHQELFRLYLFLHADHEGGNVSAHAAHVVGSALSDPFLAFSAGMAGLAGPLHGLANQECLNWLRDVHCKLNGAAPTRENVKKIAEDTLASGRVIPGYGHAVLRVTDPRFTAQREFALKYLKDDELFQLLNVAYNTIPDVLLATGKVKNPYPNVDCHSGVLLQHFGITEADFYTVLFGVSRAIGIACQYVWDRILGLPIERPKSTTLDLLKAACVERKGN", "values": [{"measurement": "Km", "setting": "[1]", "value": 1.423, "unit": "µM"}, {"measurement": "Km", "setting": "[2]", "value": 0.4693, "unit": "µM"}]}]}
